Assay results: PMC5014334

Target: glutathione-S-transferase (GST)-CDK1 fusion protein (not stated (amplified from RNA of Vero cells; African green monkey from memory))

TrxA-His-p17 fusion protein (natural protein)
in vitro kinase assay: vimentin-Ser 56 phosphorylation of GST-vimentin (2 μM) by GST-CDK1 (10 nM) and GST-cyclin B1 (10 nM) with increasing TrxA-His-p17; Ki of p17: 100 nM
